Test results: the supplement of paper PMC11246515
± gives the standard deviation of the averaged measurements.

Assay: total protein half-life in vivo (active degradation + dilution); higher = more stable protein
[1] = E. coli NCM3722 delta-clpP delta-lon delta-hslV, growth: N-lim chemostat, doubling time 6 h
[2] = E. coli NCM3722 delta-clpP, growth: N-lim chemostat, doubling time 6 h
[3] = E. coli NCM3722 delta-hslV, growth: N-lim chemostat, doubling time 6 h
[4] = E. coli NCM3722 delta-lon, growth: N-lim chemostat, doubling time 6 h
[5] = E. coli NCM3722 delta-smpB, growth: N-lim chemostat, doubling time 6 h
[6] = wild type E. coli NCM3722, growth: C-lim chemostat, doubling time 3 h
[7] = wild type E. coli NCM3722, growth: C-lim chemostat, doubling time 6 h
[8] = wild type E. coli NCM3722, growth: C-lim chemostat, doubling time 12 h
[9] = wild type E. coli NCM3722, growth: N-lim chemostat, doubling time 6 h
[10] = wild type E. coli NCM3722, growth: N-lim chemostat, doubling time 12 h
[11] = wild type E. coli NCM3722, growth: P-lim chemostat, doubling time 6 h
[12] = wild type E. coli NCM3722, growth: P-lim chemostat, doubling time 12 h

Sequence | total protein half-life in vivo [1] [h] | total protein half-life in vivo [2] [h] | total protein half-life in vivo [3] [h] | total protein half-life in vivo [4] [h] | total protein half-life in vivo [5] [h] | total protein half-life in vivo [6] [h] | total protein half-life in vivo [7] [h] | total protein half-life in vivo [8] [h] | total protein half-life in vivo [9] [h] | total protein half-life in vivo [10] [h] | total protein half-life in vivo [11] [h] | total protein half-life in vivo [12] [h]
MNELDGIKQFTTVVADSGDIESIRHYHPQDATTNPSLLLKAAGLSQYEHLIDDAIAWGKKNGKTQEQQVVAACDKLAVNFGAEILKIVPGRVSTEVDARLSFDKEKSIEKARHLVDLYQQQGVEKSRILIKLASTWEGIRAAEELEKEGINCNLTLLFSFAQARACAEAGVFLISPFVGRIYDWYQARKPMDPYVVEEDPGVKSVRNIYDYYKQHHYETIVMGASFRRTEQILALTGCDRLTIAPNLLKELQEKVSPVVRKLIPPSQTFPRPAPMSEAEFRWEHNQDAMAVEKLSEGIRLFAVDQRKLEDLLAAKL [P0A867] | 5.487 ± 0.013 | 5.51 ± 0.43 | 5.35 ± 0.25 | 5.76 ± 0.63 | 5.19 ± 0.4 | 3.12 ± 0.12 | 5.95 ± 0.33 | 11.7 ± 0.016 | 5.19 ± 0.21 | 9.85 ± 1.3 | 5.9 ± 0.16 | 12.8 ± 0.16
MFIPSIYLHQQLHYCKTAILNWSRKMALSRQKFTFERLRRFTLPEGKKQTFLWDADVTTLACRATSGAKAFVFQSVYAGKTLRMTIGNINDWKIDDARAEARRLQTLIDTGIDPRIAKAVKIAEAESLQAESRKTKVTFSVAWEDYLQELRTGISAKTKRPYSTRYIADHINLSSRGGESKKRGQGPTSAGPLASLLNLPLSELTPDYIAAWLSTERQNRPTVTAHAYRLLRAFIKWSNYQKKYQGIIPGDLAQDYNVRKMVPVSASKADDCLQKEQLKSWFSAVRSLNNPIASAYLQVLLLTGARREEIASLRWSDVDFKWSSMRIKDKIEGERIIPLTPYVSELLNVLAQSPNSDVNKEGWVFRSNSKSGKIIEPRSAHNRALVLAELPHISLHGLRRSFGTLAEWVEVPTGIVAQIMGHKPSALAEKHYRRRPLDLLRKWHEKIETWILNEAGITIKNNVDMR | 4.69 ± 0.43 | 1.01 ± 0.058 | 1.22 ± 0.19 | 3.07 ± 0.74 | 0.692 ± 0.011 | 0.877 ± 0.072 | 1.51 ± 0.091 | 3.01 ± 0.11 | 1.19 ± 0.41 | 1.97 ± 0.42 | 0.516 | 2.03 ± 0.4
MRITIILVAPARAENIGAAARAMKTMGFSDLRIVDSQAHLEPATRWVAHGSGDIIDNIKVFPTLAESLHDVDFTVATTARSRAKYHYYATPVELVPLLEEKSSWMSHAALVFGREDSGLTNEELALADVLTGVPMVADYPSLNLGQAVMVYCYQLATLIQQPAKSDATADQHQLQALRERAMTLLTTLAVADDIKLVDWLQQRLGLLEQRDTAMLHRLLHDIEKNITK |  | 4 ± 0.61 | 3.98 ± 0.83 | 4.08 ± 0.37 | 3.38 ± 0.046 |  | 5.62 ± 0.99 | 7.53 ± 0.58 | 3.72 ± 0.22 | 5.26 ± 0.45 | 4.87 ± 0.26 | 11.5 ± 2.5
MNQVAVVIGGGQTLGAFLCHGLAAEGYRVAVVDIQSDKAANVAQEINAEYGESMAYGFGADATSEQSVLALSRGVDEIFGRVDLLVYSAGIAKAAFISDFQLGDFDRSLQVNLVGYFLCAREFSRLMIRDGIQGRIIQINSKSGKVGSKHNSGYSAAKFGGVGLTQSLALDLAEYGITVHSLMLGNLLKSPMFQSLLPQYATKLGIKPDQVEQYYIDKVPLKRGCDYQDVLNMLLFYASPKASYCTGQSINVTGGQVMF | 4.14 |  |  |  |  | 1.19 ± 0.41 |  | 1.43 |  |  |  | 
MTQDELKKAVGWAALQYVQPGTIVGVGTGSTAAHFIDALGTMKGQIEGAVSSSDASTEKLKSLGIHVFDLNEVDSLGIYVDGADEINGHMQMIKGGGAALTREKIIASVAEKFICIADASKQVDILGKFPLPVEVIPMARSAVARQLVKLGGRPEYRQGVVTDNGNVILDVHGMEILDPIAMENAINAIPGVVTVGLFANRGADVALIGTPDGVKTIVK [P0A7Z0] | 4.63 ± 0.6 | 3.964 ± 0.033 | 4.16 ± 0.58 | 4.46 ± 0.19 | 4.21 ± 0.072 | 2.89 ± 0.12 | 5.36 ± 0.4 | 9.4966 ± 0.0081 | 4.01 ± 0.3 | 6.79 ± 0.038 | 5.1 ± 0.3 | 11.6 ± 0.7
MSWIERIKSNITPTRKASIPEGVWTKCDSCGQVLYRAELERNLEVCPKCDHHMRMTARNRLHSLLDEGSLVELGSELEPKDVLKFRDSKKYKDRLASAQKETGEKDALVVMKGTLYGMPVVAAAFEFAFMGGSMGSVVGARFVRAVEQALEDNCPLICFSASGGARMQEALMSLMQMAKTSAALAKMQERGLPYISVLTDPTMGGVSASFAMLGDLNIAEPKALIGFAGPRVIEQTVREKLPPGFQRSEFLIEKGAIDMIVRRPEMRLKLASILAKLMNLPAPNPEAPREGVVVPPVPDQEPEA [P0A9Q5] | 5.95 ± 0.21 | 6.46 ± 0.77 | 6.167 ± 0.012 | 5.92 ± 0.97 | 5.66 ± 0.42 | 3.03 ± 0.31 | 6.15 ± 0.42 | 11.2 ± 0.44 | 6.06 ± 0.44 | 12.1 ± 0.061 | 5.81 ± 0.093 | 12.3 ± 0.26
